We go through 125 sequences from the supplement of paper PMC9112550, “Optimization of the antimicrobial peptide Bac7 by deep mutational scanning” (BMC Biology, 2022).

This data set deals with Escherichia coli TOP10. The data set is described as follows: shrunken log2 fold change of peptide-encoding DNA abundance (4.5 h post-induction vs induction); higher = less antimicrobial activity (less host growth inhibition). Conditions: time post-induction: 4.5 h; library: site-saturation at positions 5, 18, 19, 20.
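Further: peptides expressed intracellularly from a pBAD plasmid library in pooled LB shake-flask culture, induced with 0.3% L-arabinose, DNA abundance read by NGS, three biological replicates, DESeq2 with apeglm shrinkage.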

Turning to RRIRLRPPRLPRPRPRPIFPPRP, the “shrunken log2 fold change” value amounted to 0.0478.
Regarding RRIRPRPPRLPRPRPRPANMPRP, the “shrunken log2 fold change” value was -0.219.
In the case of RRIRRRPPRLPRPRPRPNYAPRP it was 0.0933; in that of RRIRHRPPRLPRPRPRPKVYPRP, 0.0338; in that of RRIRLRPPRLPRPRPRPTSYPRP, -0.395.
On to RRIRQRPPRLPRPRPRPQRVPRP, for which the “shrunken log2 fold change” value was -0.182.
Under RRIRTRPPRLPRPRPRPEIVPRP stands 0.00632; under RRIRQRPPRLPRPRPRPPHNPRP, 1.15; under RRIRNRPPRLPRPRPRPIQYPRP, -0.377.
Take RRIRHRPPRLPRPRPRPLTWPRP: the “shrunken log2 fold change” value was -0.135.
Under RRIRPRPPRLPRPRPRPDMIPRP stands 0.249; under RRIRMRPPRLPRPRPRPVLNPRP, -0.232; under RRIRKRPPRLPRPRPRPMSPPRP, -0.0332.
As to RRIRTRPPRLPRPRPRPHGKPRP, the “shrunken log2 fold change” value is -0.209.
In the case of RRIRMRPPRLPRPRPRPGGIPRP it was 0.545; in that of RRIRLRPPRLPRPRPRPIFDPRP, -0.0489; in that of RRIRCRPPRLPRPRPRPWHCPRP, -0.0285.
On to RRIRERPPRLPRPRPRPDGIPRP, for which the “shrunken log2 fold change” value is -0.00168.
On to RRIRMRPPRLPRPRPRPEEIPRP, for which the “shrunken log2 fold change” value was found to be 0.0117.
On to RRIRTRPPRLPRPRPRPKTWPRP, for which the “shrunken log2 fold change” value was -0.268.
On to RRIRYRPPRLPRPRPRPQSCPRP, for which the “shrunken log2 fold change” value was found to be 0.0148.
As to RRIRRRPPRLPRPRPRPTIIPRP, the “shrunken log2 fold change” value is -0.159.
RRIRDRPPRLPRPRPRPEHNPRP: the “shrunken log2 fold change” value came out at 0.14.
For the sequence RRIRIRPPRLPRPRPRPRSLPRP, the “shrunken log2 fold change” value is -0.036.
Consider RRIRNRPPRLPRPRPRPLFMPRP, for which the “shrunken log2 fold change” value was -0.235.
Regarding RRIRMRPPRLPRPRPRPWRIPRP, the “shrunken log2 fold change” value was -0.0845.
Under RRIRARPPRLPRPRPRPARQPRP stands 0.766.
Turning to RRIRIRPPRLPRPRPRPSHYPRP, the “shrunken log2 fold change” value was -0.528.
In the case of RRIRRRPPRLPRPRPRPWWNPRP it was -0.188; in that of RRIRPRPPRLPRPRPRPHSIPRP, -0.418; in that of RRIRARPPRLPRPRPRPIQWPRP, 0.0649.
Under RRIRGRPPRLPRPRPRPYMWPRP stands -0.361.
Take RRIRHRPPRLPRPRPRPVWGPRP: the “shrunken log2 fold change” value is 0.479.
Under RRIRYRPPRLPRPRPRPKSPPRP stands 0.0245; under RRIRMRPPRLPRPRPRPRGDPRP, 1.73; under RRIRNRPPRLPRPRPRPHYWPRP, -0.388.
RRIRYRPPRLPRPRPRPAGEPRP: the “shrunken log2 fold change” value is -0.148.
Turning to RRIRKRPPRLPRPRPRPFPGPRP, the “shrunken log2 fold change” value is -0.0018.
For RRIRRRPPRLPRPRPRPSGRPRP, the “shrunken log2 fold change” value was determined as 0.0215.
Regarding RRIRYRPPRLPRPRPRPCCQPRP, the “shrunken log2 fold change” value was 0.0173.
Under RRIRVRPPRLPRPRPRPVRMPRP stands -0.0731; under RRIRYRPPRLPRPRPRPMTTPRP, -0.2; under RRIRHRPPRLPRPRPRPCQKPRP, -0.0102.
Take RRIRVRPPRLPRPRPRPGDVPRP: the “shrunken log2 fold change” value is -0.262.
In the case of RRIRTRPPRLPRPRPRPCIGPRP it was -0.0176.
RRIRCRPPRLPRPRPRPLNFPRP: the “shrunken log2 fold change” value was -0.0754.
Under RRIRPRPPRLPRPRPRPRLRPRP stands 0.458.
RRIRQRPPRLPRPRPRPMCMPRP: the “shrunken log2 fold change” value came to 0.0416.
For RRIRWRPPRLPRPRPRPIPVPRP, the “shrunken log2 fold change” value was -0.11.
In the case of RRIRARPPRLPRPRPRPEEWPRP, the “shrunken log2 fold change” value stood at 0.0407.
In the case of RRIRNRPPRLPRPRPRPITMPRP, the “shrunken log2 fold change” value was -0.533.
Under RRIRQRPPRLPRPRPRPCQWPRP stands -0.205.
Under RRIRLRPPRLPRPRPRPFGHPRP stands -0.177; under RRIRIRPPRLPRPRPRPIQNPRP, -0.225.
For RRIRKRPPRLPRPRPRPVEEPRP, the “shrunken log2 fold change” value is 0.695.
In the case of RRIRLRPPRLPRPRPRPAQKPRP it was 0.37.
For RRIRTRPPRLPRPRPRPFRHPRP, the “shrunken log2 fold change” value is 0.00803.
Under RRIRWRPPRLPRPRPRPDLLPRP stands 0.0586; under RRIRQRPPRLPRPRPRPEMSPRP, 0.161.
In the case of RRIRQRPPRLPRPRPRPILGPRP it was 0.0906; in that of RRIRGRPPRLPRPRPRPKRGPRP, 0.919.
Under RRIRSRPPRLPRPRPRPYPTPRP stands -0.234; under RRIRVRPPRLPRPRPRPEMCPRP, -0.0885.
Take RRIRSRPPRLPRPRPRPHVTPRP: the “shrunken log2 fold change” value is -0.232.
In the case of RRIRDRPPRLPRPRPRPTGKPRP it was 0.0507; in that of RRIRCRPPRLPRPRPRPQISPRP, -0.785; in that of RRIRRRPPRLPRPRPRPSVTPRP, -0.041.
Under RRIRYRPPRLPRPRPRPWRVPRP stands 0.0112.
In the case of RRIRQRPPRLPRPRPRPFPFPRP it was -0.00711.
Consider RRIRSRPPRLPRPRPRPIFAPRP, for which the “shrunken log2 fold change” value came out at 0.192.
Under RRIRPRPPRLPRPRPRPHNFPRP stands 0.0735.
For RRIRFRPPRLPRPRPRPHPRPRP, the “shrunken log2 fold change” value amounted to 0.5.
Regarding RRIRHRPPRLPRPRPRPHKWPRP, the “shrunken log2 fold change” value was -0.0897.
For the sequence RRIRGRPPRLPRPRPRPKHLPRP, the “shrunken log2 fold change” value was determined as 0.0257.
As for RRIRLRPPRLPRPRPRPCQDPRP, the “shrunken log2 fold change” value was found to be 0.0219.
For RRIRTRPPRLPRPRPRPDNFPRP, the “shrunken log2 fold change” value was -0.231.
In the case of RRIRKRPPRLPRPRPRPCYLPRP it was -0.427.
Take RRIRLRPPRLPRPRPRPYISPRP: the “shrunken log2 fold change” value is -0.374.
In the case of RRIRNRPPRLPRPRPRPRELPRP it was 0.287.
On to RRIRWRPPRLPRPRPRPNEKPRP, for which the “shrunken log2 fold change” value was 0.0011.
As for RRIRVRPPRLPRPRPRPMVKPRP, the “shrunken log2 fold change” value was -0.166.
Under RRIRSRPPRLPRPRPRPFFHPRP stands -0.498.
In the case of RRIRCRPPRLPRPRPRPITLPRP it was -0.441; in that of RRIRGRPPRLPRPRPRPSAYPRP, 1.07.
In the case of RRIRHRPPRLPRPRPRPKPPPRP it was 0.55; in that of RRIRFRPPRLPRPRPRPWMKPRP, -0.0336.
Regarding RRIRMRPPRLPRPRPRPVKSPRP, the “shrunken log2 fold change” value turned out to be 0.023.
Under RRIRIRPPRLPRPRPRPYCCPRP stands -0.476; under RRIRKRPPRLPRPRPRPTQNPRP, 1.07.
RRIRARPPRLPRPRPRPLLQPRP: the “shrunken log2 fold change” value turned out to be 0.171.
In the case of RRIRSRPPRLPRPRPRPLSTPRP it was -0.369; in that of RRIRDRPPRLPRPRPRPYNCPRP, -0.0352; in that of RRIRWRPPRLPRPRPRPQYWPRP, -0.184.
Under RRIRPRPPRLPRPRPRPIHQPRP stands -0.115; under RRIRRRPPRLPRPRPRPCWRPRP, 0.00446; under RRIRSRPPRLPRPRPRPTTHPRP, 0.0655.
In the case of RRIRHRPPRLPRPRPRPKYHPRP, the “shrunken log2 fold change” value was -0.773.
Regarding RRIRLRPPRLPRPRPRPTWSPRP, the “shrunken log2 fold change” value is 0.201.
For the sequence RRIRFRPPRLPRPRPRPGIHPRP, the “shrunken log2 fold change” value is -0.0365.
For RRIRWRPPRLPRPRPRPCRIPRP, the “shrunken log2 fold change” value is -0.113.
With RRIRFRPPRLPRPRPRPPRPPRP, the “shrunken log2 fold change” value came to 0.905.
In the case of RRIRSRPPRLPRPRPRPGDIPRP it was -0.198; in that of RRIRFRPPRLPRPRPRPSHVPRP, -0.281; in that of RRIRMRPPRLPRPRPRPVWTPRP, 0.386.
For the sequence RRIRLRPPRLPRPRPRPKKTPRP, the “shrunken log2 fold change” value was found to be 0.0684.
Take RRIRDRPPRLPRPRPRPCGNPRP: the “shrunken log2 fold change” value came out at 0.104.
With RRIRSRPPRLPRPRPRPWSRPRP, the “shrunken log2 fold change” value is -0.199.
For the sequence RRIRMRPPRLPRPRPRPIFCPRP, the “shrunken log2 fold change” value was -0.0454.
In the case of RRIRPRPPRLPRPRPRPRDEPRP it was 0.0975; in that of RRIRMRPPRLPRPRPRPMFVPRP, -0.298; in that of RRIRGRPPRLPRPRPRPKPNPRP, 1.05.
As for RRIRHRPPRLPRPRPRPPDWPRP, the “shrunken log2 fold change” value was determined as 0.536.
In the case of RRIRGRPPRLPRPRPRPKGIPRP, the “shrunken log2 fold change” value turned out to be 0.529.
Under RRIRLRPPRLPRPRPRPRLEPRP stands 0.348; under RRIRERPPRLPRPRPRPEPRPRP, 0.379.
Consider RRIRGRPPRLPRPRPRPHRGPRP, for which the “shrunken log2 fold change” value was found to be 0.0302.
Under RRIRPRPPRLPRPRPRPRTRPRP stands 0.187; under RRIRRRPPRLPRPRPRPGVDPRP, 0.31; under RRIRCRPPRLPRPRPRPVMCPRP, -0.127.
Under RRIRKRPPRLPRPRPRPYVWPRP stands -0.36.
With RRIRCRPPRLPRPRPRPRLTPRP, the “shrunken log2 fold change” value is 0.0689.
Turning to RRIRFRPPRLPRPRPRPPDMPRP, the “shrunken log2 fold change” value was -0.147.
Consider RRIRKRPPRLPRPRPRPGRWPRP, for which the “shrunken log2 fold change” value was 0.622.
On to RRIRVRPPRLPRPRPRPSYAPRP, for which the “shrunken log2 fold change” value is -0.477.
Turning to RRIRERPPRLPRPRPRPYHTPRP, the “shrunken log2 fold change” value worked out at 0.0711.
